According to publication PMC7382286, “Extensive sequence and structural evolution of Arginase 2 inhibitory antibodies enabled by an unbiased approach to affinity maturation” (Proceedings of the National Academy of Sciences of the …, 2020):
Substitutions are numbered along the chain they refer to.

How the values were obtained:
[1] = target: T1, recombinant human Arginase 2 (human, UniProt P78540); experiment: cell-based or functional assay
[2] = target: T1, recombinant human Arginase 2; experiment: SEC; Fab and ARG2 in solution; ratio of Fab to ARG2 upon complex formation; conditions: both partners purified
[3] = target: T1, recombinant human Arginase 2; experiment: crystal structure; ARG2-Fab C0020187 complex purified by SEC, crystallised; space group P 6(5) 2 2, 3.25 Å; conditions: both partners purified
[4] = target: T2, biotinylated recombinant human Arginase 2 (Homo sapiens, UniProt P78540, biotin (biotinylated; site not stated)); experiment: BLI; OctetRED96, 25 °C, PBS with 0.01% BSA and 0.002% Tween 20; biotinylated human ARG2 captured on streptavidin sensors, Fabs titrated as analyte; 1:1 binding model (heterogeneous ligand model for C0020187); conditions: both partners purified
T2 construct: Arginase 2 (ARG2), human, recombinant; Construct, tags and the way of biotinylation are in the SI Appendix; also called ARG2; biotinylated human ARG2; source: recombinant

[5] = target: the molecule itself; experiment: crystal structure; ARG2-Fab C0020187 complex purified by SEC, crystallised; space group P 6(5) 2 2, 3.25 Å

B1: Fab C0020187 (Fab, V domains shown)
VH: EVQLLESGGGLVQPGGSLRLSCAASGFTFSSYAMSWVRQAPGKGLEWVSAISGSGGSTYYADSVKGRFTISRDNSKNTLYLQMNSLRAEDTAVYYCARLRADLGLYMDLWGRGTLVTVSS
VL: QSVLTQPPSVSAAPGQKVTISCSGSSSNIGNHYVSWYQQLPGTAPKLLIYDNSERPSGIPDRFSGSKSGTSATLGITGLQTGDEADYYCGTWDSSLSALVFGGGTKLTVL
notes: VH of C0020187; Fab heavy-chain constant region; VL of C0020187; Fab light-chain constant region; also called parental antibody; parent Fab C0020187
- inhibition of the enzymatic activity of recombinant human ARG2 (1 µg/mL, ~24 nM; urea measured colorimetrically), IC50 [1]: 0.9 µM
- stoichiometry N [2]: 1 Fab per ARG2 trimer
- stoichiometry N [3]: 3 Fab per ARG2 trimer
- KD of the initial high-affinity binding site (heterogeneous ligand model) [4]: ~10 nM

B2: Fab C0021128 (Fab, V domains shown)
VH: EVQLLESGGGLVQPGGSLRLSCAASGFTFQYEVAAWVRQAPGKGLEWVSAISGPIPKGYYADSVKGRFTISRDNSKNTLYLQMNSLRAEDTAVYYCARLRADLGLYMDLWGRGTLVTVSS
VL: B1 VL with S53A, E54I, R55E, P56S, E84G, S95N
notes: VH of C0021128; Fab heavy-chain constant region; VL of C0021128; Fab light-chain constant region
- binding result [4]: binds

B3: Fab C0021139 (Fab, V domains shown)
VH: B2 VH with E32D, V33Y, A34Q, A35V, P54S, I55G, P56G, K57S, G58T
VL: B1 VL with P56T, S94E, S95L, L96T, A98N
notes: VH of C0021139; Fab heavy-chain constant region; VL of C0021139; Fab light-chain constant region
- binding result [4]: binds

B4: Fab C0021133 (Fab, V domains shown)
VH: B2 VH with Q30R, E32D, V33H, A34H, A35V, P54S, I55G, P56G, K57S, G58T
VL: B1 VL with I20V, N52T, S53T, E54V, R55L, P56S, S94E, S95L, L96T, A98N
notes: VH of C0021133; Fab heavy-chain constant region; VL of C0021133; Fab light-chain constant region
- binding result [4]: binds

B5: Fab C0021181 (Fab, V domains shown)
VH: EVQLLESGGGLVRPGGSLRLSCAASEFTFRYDYHVWVRQAPGKGLEWVSAISGSGGSTYYADSVKSRFTISRDNSKNTLYLQMNSLRAEDTAVYYCARLRADLGLYMDLWGRGTLVTVSS
VL: B1 VL with T19A, I20V, N31S, P56T, S94E, S95L, L96T, A98N, K106R
notes: VH of C0021181; VL of C0021181; Pool-maturation lead; 18 amino acid changes against C0020187
- stoichiometry N [2]: 3 Fab per ARG2 trimer

B6: Fab C0021158 (Fab, V domains shown)
VH: B2 VH with Q30R
VL: B1 VL with P56T, S57A, I59V, S94E, S95L, L96T, A98N
notes: VH of C0021158; VL of C0021158; Pool-maturation lead; 18 amino acid changes against C0020187
- stoichiometry N [2]: 3 Fab per ARG2 trimer

B7: Fab C0021177 (Fab, V domains shown)
VH: B2 VH with Q30R, I55A
VL: QSELTQPPTASAAPGQKVTISCSGSSSNIGNHYVSWYQQLPGTAPKLLIYDTTVLSSGIPDRFSGSKSGTSATLGITGLQTGDEADYYCGTWDELTSNLVFGGGTKLTVL
notes: VH of C0021177; VL of C0021177; Pool-maturation lead
- stoichiometry N [2]: 3 Fab per ARG2 trimer

B8: recombinant human Arginase 2 (enzyme)
chain: VHSVAVIGAPFSQGQKRKGVEHGPAAIREAGLMKRLSSLGCHLKDFGDLSFTPVPKDDLYNNLIVNPRSVGLANQELAEVVSRAVSDGYSCVTLGGDHSLAIGTISGHARHCPDLCVVWVDAHADINTPLTTSSGNLHGQPVSFLLRELQDKVPQLPGFSWIKPCISSASIVYIGLRDVDPPEHFILKNYDIQYFSMRDIDRLGIQKVMERTFDLLIGKRQRPIHLSFDIDAFDPTLAPATGTPVVGGLTYREGMYIAEEIHNTGLLSALDLVEVNPQLATSEEEAKTTANLAVDVIASSFGQTREGGHIVYDQLPTPSSPDESENQARVRI
notes: Arginase 2 (ARG2), human, recombinant; also called ARG2; trimeric ARG2; source: recombinant
- stoichiometry N [5]: 3
